Measured values as given in PMC4357711.

T1: DDX1 (DDX1-728) (Homo sapiens, UniProt Q92499 1-728)
T1 sequence: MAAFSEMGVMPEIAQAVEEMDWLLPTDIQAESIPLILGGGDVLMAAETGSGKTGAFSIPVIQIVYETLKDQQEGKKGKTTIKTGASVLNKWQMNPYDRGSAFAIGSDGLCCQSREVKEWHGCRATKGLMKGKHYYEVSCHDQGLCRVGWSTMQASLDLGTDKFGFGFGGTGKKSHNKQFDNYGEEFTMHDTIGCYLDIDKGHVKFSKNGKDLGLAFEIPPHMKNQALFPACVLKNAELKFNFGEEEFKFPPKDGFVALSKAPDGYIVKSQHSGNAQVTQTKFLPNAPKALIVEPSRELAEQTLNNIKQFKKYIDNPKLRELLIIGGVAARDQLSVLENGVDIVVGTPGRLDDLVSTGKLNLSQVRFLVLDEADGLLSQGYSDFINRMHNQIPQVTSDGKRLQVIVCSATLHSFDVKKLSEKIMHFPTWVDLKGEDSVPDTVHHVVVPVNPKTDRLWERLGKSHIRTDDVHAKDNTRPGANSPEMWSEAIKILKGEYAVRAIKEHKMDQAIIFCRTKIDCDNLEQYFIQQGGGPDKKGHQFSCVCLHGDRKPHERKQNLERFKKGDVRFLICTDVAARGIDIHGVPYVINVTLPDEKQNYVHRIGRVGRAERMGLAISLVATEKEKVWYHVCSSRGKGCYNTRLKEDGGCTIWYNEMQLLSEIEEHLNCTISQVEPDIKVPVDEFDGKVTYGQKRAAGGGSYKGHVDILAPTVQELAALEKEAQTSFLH


What was measured:
DDX1 (DDX1-728) [1] = target: T1, DDX1 (DDX1-728); test: EMSA
DDX1 (DDX1-728) [2] = target: T1, DDX1 (DDX1-728); test: mantdADP displacement fluorescence titration, global fit

Binder | binding result (DDX1 (DDX1-728) [1]) | Kd (DDX1 (DDX1-728) [2]) [µM]
UUUUUUUUUU (ssRNA) [10mer polyU RNA, FAM] | binds | 
AAAAAAAAAA (ssRNA) [10mer polyA RNA] |  | 0.36 ± 0.12
AGCACCGUAAAGA (ssRNA) [13mer mixed sequence RNA, FAM] | binds | 
